{
  "source": "patent US20240417436A1",
  "about": "(BRIGHT PEAK THERAPEUTICS, published 2024)",
  "binders": {"B1": {"name": "CMP-328 (ligand)", "chain": "APTSSSTKKTQLQLEHLLLDLQEILNGINNYKNPKLTR[Nle]L[hSer][Yn3(3)]KF[Ygp(3)][Nle]PKKATELKHLQCLEEELKPLEEVL[hSer]LAQSKNFHLRPRDLISNINVIVLELKGSETTF[hSer]CEYADETATIVEFLNRWITFSQSIISTLT", "modifications": "disulfide 58-105; linker 9-23 via cleavable peptide RGRRVANLVG; also: macrocycle: cleavable peptide bridging Lys9 and Glu23 side chains (structure drawing only)"}, "B2": {"name": "CMP-166 (ligand)", "chain": "APTSSSTKKTQLQLEHLLLDLQKILNGINNYKNPKLTR[Nle]L[hSer][Yn3]KF[Ygp][Nle]PKKATELKHLQCLEEELKPLEEVL[hSer]LAQSKNFHLRPRDLISNINVIVLELKGSETTF[hSer]CEYADETATIVEFLNRWITFSQSIISTLT", "modifications": "disulfide 58-105 (inferred); bridge N-23; not fully specified (bridges); also: cleavable peptide (sequence not given here) joined to N-terminus via glutaryl-PEG4 and to Lys23 side chain"}, "B3": {"name": "CMP-167 (ligand)", "chain": "APTSSSTKKTQLQLEHLLLDLQKILNGINNYKNPKLTR[Nle]L[hSer][Yn3]KF[Ygp][Nle]PKKATELKHLQCLEEELKPLEEVL[hSer]LAQSKNFHLRPRDLISNINVIVLELKGSETTF[hSer]CEYADETATIVEFLNRWITFSQSIISTLT", "modifications": "disulfide 58-105 (inferred); bridge N-23; not fully specified (bridges); also: cleavable peptide (sequence not given here) joined to N-terminus via glutaryl-PEG9 and to Lys23 side chain"}, "B4": {"name": "CMP-313 (ligand)", "chain": "APTSSSTKKTQLQLEHLLLDLQK(KKRGRRVANLVG)ILNGINNYKNPKLTR[Nle]L[hSer][Yn3(3)]KF[Ygp(3)][Nle]PKKATELKHLQCLEEELKPLEEVL[hSer]LAQSKNFHLRPRDLISNINVIVLELKGSETTF[hSer]CEYADETATIVEFLNRWITFSQSIISTLT", "modifications": "disulfide 58-105; also: branched 27x PEG chains on the attached peptide"}},
  "key": {"[1]": {"molecular_target": "T1, Avi-Tag Fc with human IL-2R beta and IL-2R gamma attached (Acrobiosystems ACRB-ILG-H82F3-25UG) (human, UniProt P14784 27-239; P31785 23-262)", "T1 construct": "bought heterodimer; also called CD122 CD132; CD122/CD132 complex", "T1 sequence (looked up) 1": "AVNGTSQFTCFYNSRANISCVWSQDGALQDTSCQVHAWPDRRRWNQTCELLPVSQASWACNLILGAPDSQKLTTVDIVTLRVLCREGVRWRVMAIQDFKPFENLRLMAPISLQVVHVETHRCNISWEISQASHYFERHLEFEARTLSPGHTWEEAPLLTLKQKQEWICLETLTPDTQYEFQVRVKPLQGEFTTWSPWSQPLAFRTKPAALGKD", "T1 sequence (looked up) 2": "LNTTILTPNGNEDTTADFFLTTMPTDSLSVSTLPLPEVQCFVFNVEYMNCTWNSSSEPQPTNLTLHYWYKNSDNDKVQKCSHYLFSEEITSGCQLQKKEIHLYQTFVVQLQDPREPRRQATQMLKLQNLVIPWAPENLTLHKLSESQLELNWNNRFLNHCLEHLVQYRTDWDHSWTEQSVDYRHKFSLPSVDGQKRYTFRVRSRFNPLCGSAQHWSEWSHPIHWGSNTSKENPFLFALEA", "assay": "BLI (Octet), receptor on SAX2 sensor, IL-2 as analyte"}, "[2]": {"molecular_target": "T2, recombinant human IL-2 receptor beta containing a His-tag and Avi-Tag (R&D Systems #AVI10459) (human, UniProt P14784 27-239)", "T2 construct": "bought protein, held on the Octet SAX2 sensor; also called CD122; IL-2Rβ", "T2 sequence (looked up)": "T1 sequence (looked up) 1", "assay": "BLI (Octet), receptor on SAX2 sensor, IL-2 as analyte"}, "[3]": {"molecular_target": "T2, recombinant human IL-2 receptor beta …", "assay": "BLI (Octet), receptor on SAX2 sensor, IL-2 as analyte; construct CMP-328", "procedure": "(§1) Bilayer interferometry (BLI) assays were used to measure the binding constants between activatable IL-2 polypeptides (and activated versions thereof) to IL-2 receptor subunits or receptor complexes. BLI assays were conducted on an Octet® R8 instrument. Assay plates were 96 well, polypropylene, F-bottom (chimney well), black microplates (Greiner Bio-one, Cat. No: 655209). The biosensors were Octet® SAX2 (Sartorius, Cat. No: 18-5136). The assay buffer was 1× Kinetic Buffer (Sartorius, Cat. no: 18-5136) or Phosphate Buffered Saline (PBS) that contained 0.02% (v: v) Tween 20 (Polysorbate 20) and 0.1% (w/v) bovine serum albumin (BSA). The sensor was regenerated between measurements in 10 mM glycine pH 2.7 buffer.\n(§2) Sensor attached receptors were either recombinant human IL-2 receptor beta containing a His-tag and Avi-Tag™ (R&D Systems™ #AVI10459) or an Avi-Tag™ Fc with human IL-2R beta and IL-2R gamma attached (Acrobiosystems Cat. no: ACRB-ILG-H82F3-25UG). Receptors were reconstituted from lyophilized powder to 500 μg/ml in PBS. Analytes were diluted in Kinetic buffer to 300 nM, then serially diluted to lower concentrations."}, "[4]": {"molecular_target": "T2, recombinant human IL-2 receptor beta …", "assay": "BLI (Octet), receptor on SAX2 sensor, IL-2 as analyte; construct CMP-166, intact (not the MMP2-treated row r19)", "procedure": "as §1, §2"}, "[5]": {"molecular_target": "T2, recombinant human IL-2 receptor beta …", "assay": "BLI (Octet), receptor on SAX2 sensor, IL-2 as analyte; construct CMP-167, intact (not the MMP2-treated row r22)", "procedure": "as §1, §2"}, "[6]": {"molecular_target": "T2, recombinant human IL-2 receptor beta …", "assay": "BLI (Octet), receptor on SAX2 sensor, IL-2 as analyte; construct CMP-313", "procedure": "as §1, §2"}},
  "note": "*1 amine or outer side, *2 acyl side, *3 side chain or, on linkers, in order; H or OH if unused. Bridges are numbered along the chain shown (N, C = ends). Primed or numbered codes have the meaning given here. [ ]: non-standard residue; d: D form. cleavable peptide RGRRVANLVG = CC(C)C[C@H](NC(=O)[C@H](CC(N)=O)NC(=O)[C@H](C)NC(=O)[C@@H](NC(=O)[C@H](CCCNC(=N)N)NC(=O)[C@H](CCCNC(=N)N)NC(=O)CNC(=O)[C@H](CCCNC(=N)N)N[*:1])C(C)C)C(=O)N[C@H](C(=O)NCC(=O)[*:2])C(C)C; Ygp = O-(8x polyethylene glycol-amino)-tyrosine; Yn3 = O-(9x polyethylene glycol-azido)-tyrosine; Ygp(3) = O-(PEG8-amino)-tyrosine; Yn3(3) = O-(PEG9-azido)-tyrosine; hSer = N[C@@H](CCO)C(=O)O; Nle = CCCC[C@H](N)C(=O)O",
  "data": [
    {"binder": "B1", "values": [
      {"measurement": "Kd", "setting": "[1]", "result": 24.9, "unit": "nM"},
      {"measurement": "koff", "setting": "[1]", "result": 0.00194, "unit": "s⁻¹"},
      {"measurement": "kon", "setting": "[1]", "result": 77800, "unit": "M⁻¹ s⁻¹"},
      {"measurement": "koff", "setting": "[2]", "result": 0.00154, "unit": "s⁻¹"},
      {"measurement": "kon", "setting": "[2]", "result": "4.52e+07", "unit": "M⁻¹ s⁻¹"},
      {"measurement": "Kd", "setting": "[3]", "result": 0.034, "unit": "nM"}
    ]},
    {"binder": "B2", "values": [
      {"measurement": "Kd", "setting": "[4]", "result": 614, "unit": "nM"}
    ]},
    {"binder": "B3", "values": [
      {"measurement": "Kd", "setting": "[5]", "result": 215, "unit": "nM"}
    ]},
    {"binder": "B4", "values": [
      {"measurement": "koff", "setting": "[1]", "result": 0.00148, "unit": "s⁻¹"},
      {"measurement": "Kd", "setting": "[6]", "result": 163, "unit": "nM"}
    ]}
  ]
}
